# Values quoted from earlier work as cited in PMC11558822, “Myc 9aaTAD activation domain binds to mediator of transcription with superior high affinity” (Molecular Medicine, 2024).
# Target: CBP KIX (Homo sapiens) (UniProt Q92793)
# Assay: ITC
# CBP KIX (Homo sapiens), sequence (Q92793 584-669): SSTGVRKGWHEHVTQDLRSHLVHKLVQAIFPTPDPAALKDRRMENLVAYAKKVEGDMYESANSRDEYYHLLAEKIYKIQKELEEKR
substance,measurement,value
MLL 9aaTAD (from UniProt Q03164),Kd,1400 nM
